18 molecules from patent US20240209093A1 (I MAB BIOPHARMA, published 2024) can be followed below.

B1: ALP-Tan-3p-93 (VHH)
VHH: QVQLVESVGGLVQPGDSLRLSCLASGRTFTFRHYVMGWFRQAPGKEREFVAAISWSGSGSYYADSVKGRFTISRDNSKNMVFLQMNGLKPEDTAVYYCAADMTTRMSQASREYDYWGQGTQVTVSS
B2: ALP-Tan-3p-112 (VHH)
VHH: QVQLVESGGGLVQPGGSLRLSCAASGSIFSSGTNFSDSKIDWYRQAPGKQRDWIAGIFSTGSTIYEDSVKGRFAISRDNAKNMGYLQMNSLKPEDTAVYYCRVIGRGILAWGQGTQVTVSS
B3: ASP-3P-46 (VHH)
VHH: QVQLVESGGGLVQPGGSLRLSCAASARSINGMEWYRQAPGERRELVAGITAGGSAYYTDTVKGRFTISRDNAENTGYLQMNSLSPDDTAVYYCRRQYGPNWYWGQGTQVTVSS
notes: also called ASP-30-46
B4: TIGIT antibody (antibody, V domains shown)
VH: EVKLVESGGGLVQPGGSLRLSCAASGFTFSDYYMYWVRQAPGKRLEWVASITKGGGSTYYPDTLKGRFTISRDNAKNSLYLQMNRLRAEDTAVYYCARQSSYDFVMDYWGQGTTVTVSS
VL: DIVMTQSPSSLSASVGDRVTITCKASQDVDTAVAWYQQKPGKAPKLLIYWASARHTGVPSRFSGSGSGTDFTFTISSLQPEDIATYYCQQYSNYPLTFGQGTKLEIK
notes: Only variable domains are tied to the parental antibody; also called TIGIT Ab; parental TIGIT antibody
B5: ALP-Tan-3p-93 (chimeric) (antibody, V domains shown, not shown: a dimerising Fc or GST; small tags and cut ends)
VH: B1 VHH
notes: Called chimeric; also called ALP-Tan-3p-93 chimeric antibody
B6: 93-VH-8 (VHH)
VHH: EVQLVESGGGLVQPGGSLRLSCAASGRTFTFRHYVMGWFRQAPGKGLEFVAAISWSGSGSYYADSVKGRFTISRDNSKNTVYLQMNSLRAEDTAVYYCAADMTTRMSQASREYDYWGQGTLVTVSS
notes: Humanized
B7: 93-VH-2 (VHH)
VHH: B6 VHH with R27F, F39V, G46E, L47R, F49W, A51S
notes: Humanized
B8: 93-VH-3 (VHH)
VHH: B6 VHH with R27F, V81L, A100K
notes: Humanized
B9: 93-VH-4 (VHH)
VHH: B6 VHH with R27F
notes: Humanized
B10: 93-VH-5 (VHH)
VHH: B6 VHH with R27F, G46E, L47R, V81L, A100K
notes: Humanized
B11: 93-VH-7 (VHH)
VHH: B6 VHH with R27F, V81L
notes: Humanized
B12: 93-VH-9 (VHH)
VHH: B6 VHH with V81L
notes: Humanized
B13: 112-VHH5-PTM (VHH)
VHH: B2 VHH with Q1E, N34Q, I54V, M83S, G84L, K92R, P93A, Q116L
notes: Humanized
B14: 112-VHH3-PTM (VHH)
VHH: EVQLVESGGGLVQPGGSLRLSCAASGSIFSSGTQFSDSKIDWYRQAPGKQREWVSGIFSTGSTIYEDSVKGRFTISRDNAKNSLYLQMNSLRAEDTAVYYCRVIGRGILAWGQGTLVTVSS
notes: Humanized
B15: ALP-Tan-3p-112 (chimeric) (antibody, V domains shown, not shown: a dimerising Fc or GST; small tags and cut ends)
VH: B2 VHH
notes: Called chimeric
B16: 112-VHH7-PTM (VHH)
VHH: B14 VHH with V54I, S55A, T74A, S83M
notes: Humanized
B17: 34C5 (antibody, V domains shown)
VH: QVQLVQSGAEVKKPGSSVKVSCKASGYTFSSYYMHWVRQAPGQGLEWMGEINPNNARINFNEKFKTRVTLTVDKSTSTAYMELSSLRSEDTAVYYCTRGYYRYGAWFGYWGQGTLVTVSS
VL: DIQMTQSPSSLSASVGDRVTITCRASQDISDYLNWYQQKPGKAPKLLIYYISRLHSGVPSRFSGSGSGTDYTLTISSLQPEDFATYYCQQGHTLPWTFGGGTKVEIK
notes: also called anti-CD47 antibody 34C5; parental CD47 antibody 34C5
B18: 13H3 (antibody, V domains shown)
VH: EVQLVESGGGLVKPGGSLRLSCAASGLTFERAWMNWVRQAPGKGLEWVGRIKRKTDGETTDYAAPVKGRFSISRDDSKNTLYLQMNSLKTEDTAVYYCAGSNRAFDIWGQGTMVTVSS
VL: DIVMTQSPDSLAVSLGERATINCKSSQSVLYAGNNRNYLAWYQQKPGQPPKLLINQASTRASGVPDRFSGSGSGTEFTLIISSLQAEDVAIYYCQQYYTPPLAFGGGTKLEIK
notes: also called anti-CD47 antibody 13H3; parental CD47 antibody 13H3

Substitutions are numbered along the chain they refer to.

T3 sequence (Q08722 19-139 limits assumed): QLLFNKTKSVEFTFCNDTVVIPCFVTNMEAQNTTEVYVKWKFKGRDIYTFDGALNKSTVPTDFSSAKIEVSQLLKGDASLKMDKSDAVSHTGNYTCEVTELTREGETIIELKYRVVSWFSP

The target in the first test is T1, human PD-L1-his (human, UniProt Q9NZQ7 19-238).
T1 construct: also called hPD-L1-his; human His-PD-L1
T1 sequence (Q9NZQ7 19-238 limits assumed): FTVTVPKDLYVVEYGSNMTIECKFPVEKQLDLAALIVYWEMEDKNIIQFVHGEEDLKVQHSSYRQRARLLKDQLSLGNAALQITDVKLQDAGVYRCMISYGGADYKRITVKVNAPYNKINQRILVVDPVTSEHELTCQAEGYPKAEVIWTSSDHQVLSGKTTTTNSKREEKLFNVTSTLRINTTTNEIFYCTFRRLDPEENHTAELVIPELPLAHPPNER
Put plainly: SPR, Biacore T200.
As usually defined, the Kd is a measure of binding affinity in units of concentration. A word on the koff: it is the rate constant with which the complex falls apart. A lower koff goes with a long-lived complex. A word on the kon: it is a measure of how fast the partners come together. Read a high kon as fast association. With B1, the Kd was found to be 0.459 nM, the koff was determined as 7.8e-05 s⁻¹ and the kon worked out at 154000 M⁻¹ s⁻¹.

On to B2, for which the Kd came to 0.479 nM, the koff stood at 0.000235 s⁻¹ and the kon was 490000 M⁻¹ s⁻¹.

Turning to B3, the Kd is 1.81 nM, the koff turned out to be 0.00128 s⁻¹ and the kon was 710000 M⁻¹ s⁻¹.

Another test addresses T2, His-tagged human TIGIT-ECD protein (human, UniProt Q495A1 22-141).
T2 construct: extracellular domain; also called hTIGIT-his
T2 sequence (looked up): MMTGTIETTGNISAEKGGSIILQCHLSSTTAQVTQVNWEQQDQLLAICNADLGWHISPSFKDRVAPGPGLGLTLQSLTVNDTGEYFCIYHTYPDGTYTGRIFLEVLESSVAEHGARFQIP
Kind of test: ELISA on His-tagged human TIGIT.
A word on the EC50 (read off the curve): it is the concentration that produces a half-maximal response. B4: the “EC50 (read off the curve)” value is approximately 0.2 nM.

For the next test, the target named is T1, human PD-L1-his. Put plainly: SPR, Biacore, full kinetics, antigen 100-1.5625 nM. On the technique in general: Surface plasmon resonance follows binding to a sensor surface in real time, without labels.
As to B5, the Kd was determined as 0.559 nM, the koff came out at 0.000107 s⁻¹ and the kon turned out to be 192000 M⁻¹ s⁻¹.

For B6, binding was put at a Kd of 1.8 nM, the koff worked out at 0.000239 s⁻¹ and the kon was determined as 133000 M⁻¹ s⁻¹.

The molecule B7 returned a Kd of 26.3 nM, a koff of 0.00162 s⁻¹ and a kon of 61500 M⁻¹ s⁻¹.

As to B8, the Kd turned out to be 2.36 nM, the koff came to 0.00115 s⁻¹ and the kon was found to be 486000 M⁻¹ s⁻¹.

The molecule B9 displayed a Kd of 1.82 nM, a koff of 0.000147 s⁻¹ and a kon of 80500 M⁻¹ s⁻¹.

B10 returned a Kd of 2.77 nM, a dissociation rate constant (koff) of 0.00125 s⁻¹ and a kon of 452000 M⁻¹ s⁻¹.

B11 came in with a Kd of 3.87 nM, a koff of 0.000339 s⁻¹ and a kon of 87600 M⁻¹ s⁻¹.

The molecule B12 showed a Kd of 2.2 nM, a koff of 0.00031 s⁻¹ and a kon of 140000 M⁻¹ s⁻¹.

For the molecule B13, the Kd came out at 0.92 nM, the koff turned out to be 0.00149 s⁻¹ and the kon amounted to 1.62e+06 M⁻¹ s⁻¹.

B14: the Kd came out at 2.4 nM, the koff was 0.00498 s⁻¹ and the kon is 2.07e+06 M⁻¹ s⁻¹.

B15 returned a Kd of 0.264 nM, a koff of 0.000566 s⁻¹ and a kon of 2.14e+06 M⁻¹ s⁻¹.

Regarding B16, the Kd came out at 2.32 nM, the koff stood at 0.00393 s⁻¹ and the kon is 1.69e+06 M⁻¹ s⁻¹.

In the next test the target is T2, His-tagged human TIGIT-ECD protein. Kind of test: SPR, Biacore T200, antibody captured on protein A chip, hTIGIT-his 0.78-12.5 nM as analyte. An excerpt:
The antibodies were captured by Protein A chip. […] The association phase was 180 s and the dissociation phase was 1200 s.
For B4, the Kd stood at 0.144 nM, the koff stood at 0.000172 s⁻¹ and the kon came out at 1.19e+06 M⁻¹ s⁻¹.

The next test addresses T3, Tag1-CD47 (UniProt Q08722 19-139).
T3 construct: Bought kit reagent
Put plainly: HTRF CD47/SIRPα binding assay (Cisbio): blocking of Tag2-SIRPa binding to Tag1-CD47; axis numbers -3 to 3 read as log10 of nM. An excerpt:
Fluorescence data were read on a PerkinElmer Envision plate reader using laser as light source.
For orientation: TR-FRET usually uses a lanthanide donor and a delayed reading to cut background.
Consider B17, for which the “IC50 (read off the curve)” value is approximately 0.7 nM.

In the case of B18, the “IC50 (read off the curve)” value is approximately 1 nM.
